Positions of bridges follow the written chain, without caps; N, C: chain ends. No end group written: not given here. *: point of attachment. NHNH2 = NN*
Assays:
[1] = target: T1, factor VIII-like polypeptide (REFACTO®) (Homo sapiens, UniProt P00451); assay: Affinity chromatography capture and elution of REFACTO® on immobilized peptide columns; type: binding; settings: bound material eluted in the presence of ethylene glycol
T1 construct: amino acids 1-743 and 1638 through 2332 of human factor VIII; purchased Genetics Institute, Inc. (Cambridge, Mass.)
T1 sequence (P00451 20-762): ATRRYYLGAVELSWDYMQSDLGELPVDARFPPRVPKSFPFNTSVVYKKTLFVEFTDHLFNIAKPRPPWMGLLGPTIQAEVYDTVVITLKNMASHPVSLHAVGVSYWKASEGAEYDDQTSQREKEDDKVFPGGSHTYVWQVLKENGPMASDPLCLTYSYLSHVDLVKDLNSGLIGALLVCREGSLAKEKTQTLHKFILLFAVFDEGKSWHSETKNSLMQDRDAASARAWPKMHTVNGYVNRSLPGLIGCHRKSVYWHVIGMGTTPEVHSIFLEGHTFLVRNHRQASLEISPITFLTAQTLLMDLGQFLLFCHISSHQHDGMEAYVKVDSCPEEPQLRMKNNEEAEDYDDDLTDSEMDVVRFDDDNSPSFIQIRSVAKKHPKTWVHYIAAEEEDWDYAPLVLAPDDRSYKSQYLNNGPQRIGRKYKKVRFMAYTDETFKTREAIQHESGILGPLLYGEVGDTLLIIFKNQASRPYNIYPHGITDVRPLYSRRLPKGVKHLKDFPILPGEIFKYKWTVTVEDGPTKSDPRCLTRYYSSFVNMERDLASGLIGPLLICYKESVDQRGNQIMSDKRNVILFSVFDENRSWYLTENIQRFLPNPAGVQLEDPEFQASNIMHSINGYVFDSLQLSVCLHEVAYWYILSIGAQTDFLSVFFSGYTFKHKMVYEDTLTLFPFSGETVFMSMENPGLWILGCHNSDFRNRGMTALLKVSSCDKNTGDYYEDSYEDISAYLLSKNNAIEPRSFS
T1 sequence (P00451 1657-2351): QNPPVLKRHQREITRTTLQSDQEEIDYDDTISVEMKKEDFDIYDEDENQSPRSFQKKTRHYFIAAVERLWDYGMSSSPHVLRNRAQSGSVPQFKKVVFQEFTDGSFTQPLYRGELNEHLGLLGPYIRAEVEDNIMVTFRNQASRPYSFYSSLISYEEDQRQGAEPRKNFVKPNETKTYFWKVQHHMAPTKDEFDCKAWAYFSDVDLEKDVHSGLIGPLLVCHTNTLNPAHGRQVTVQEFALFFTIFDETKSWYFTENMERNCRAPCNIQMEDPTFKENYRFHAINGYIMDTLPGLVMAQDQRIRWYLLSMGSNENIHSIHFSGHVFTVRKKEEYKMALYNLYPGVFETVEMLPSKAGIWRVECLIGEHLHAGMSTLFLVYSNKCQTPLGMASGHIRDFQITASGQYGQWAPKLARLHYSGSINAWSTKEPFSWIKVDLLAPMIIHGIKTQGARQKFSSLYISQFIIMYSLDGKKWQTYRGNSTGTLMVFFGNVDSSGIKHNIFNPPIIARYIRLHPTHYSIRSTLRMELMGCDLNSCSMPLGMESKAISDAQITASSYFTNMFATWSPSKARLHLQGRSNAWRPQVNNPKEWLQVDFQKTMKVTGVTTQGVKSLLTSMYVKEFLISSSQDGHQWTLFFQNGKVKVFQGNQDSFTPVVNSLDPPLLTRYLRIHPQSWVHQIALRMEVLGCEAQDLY
Protocol: The candidate ligands were immobilized onto a formyl-substituted ethylene glycol-methacrylate chromatographic resin (Toyopearl Formyl 650-M, pore size of ˜1000 Å; TosoHaas, Montgomeryville, Pa.). The hydrazide-containing peptides were immobilized by facilitating hydrazone bond formation, the GI-1 and -2 peptides were immobilized via reductive amination using NaCNBH3. The amount of polypeptide immobilized on the solid support was determined by quantifying the amount of free polypeptide remaining in solution. The amount of ligand immobilized per ml of resin was in the range of 0.7-1.5 μmol for the hydrazine-immobilized peptides.
The nine peptides were evaluated by affinity chromatography for their ability to capture the REFACTO® described in Example I, under specific binding and release conditions.
The factor VIII-like polypeptide (REFACTO®) was diluted in SP Buffer to a concentration of 150 μg/ml. The affinity resins (˜350 μl) were each packed into glass columns, and approximately 150 μg of the factor VIII target was applied to the prepared affinity columns at a flow rate of 200 μl/minute (linear velocity of 170 cm/hour). […] Fractions were collected and the mass and activity of recovered factor VIII-like polypeptide was determined by reversed-phase HPLC and by enzymatic assay.
For the mass determination, a standard curve with REFACTO® (0-200 μg) was generated and the amount present in each fraction was calculated according to techniques well known in the art. Reversed-phase HPLC in the presence of 20 mM EDTA was used to disrupt the REFACTO® molecule into its component subunits, which were eluted with a gradient of acetonitrile/0.01% TFA. The activity assay was a Factor IX-, X-based assay. The results for each affinity resin are set forth below (Table 6).

[2] = Peptide stability, Asp-Pro changed to Glu-Pro; type: physicochemical; settings: DP changed to EP versus GI-2; Asp-Pro hydrolysis particularly at low pH
Description: Binding polypeptides were synthesized with the amino terminal residue acetylated and the carboxyl terminal residue as a free acid. The two cysteine residues are oxidized and form a disulfide bond which creates a cyclic peptide structure. The residues contained within the cyclic structure are underlined. The peptide sequence is identical to the sequence GI-2 shown in Table 4 except that the aspartic acid residue at position 19 has been changed to glutamic acid (bold).

| Substance | capture of the factor VIII target by the affinity resin (in words) [1] | peptide stability (in words) [2] |
| --- | --- | --- |
| AEGTGDFCWVFPFQHCADPGPEGGGS-NHNH2 (disulfide 8-16 (inferred)) [CS-459] | captured virtually all of the factor VIII target applied |  |
| AEGTGDFHCIGVWFCLHDPGPEGGGS-NHNH2 (disulfide 9-15 (inferred)) [CS-455] | inability of the CS-455 and GI-1 resins to capture the target |  |
| AEGTGDHPCGSWLRPCLHDPGPEGGGS-NHNH2 (disulfide 9-16 (inferred)) [CS-453] | captured virtually all of the factor VIII target applied |  |
| Ac-AEGTGDRLCSWVSPCSADPEGGGSK (cysteine pairing not given here) [GI-1] | inability of the CS-455 and GI-1 resins to capture the target |  |
| Acetyl-AEGTGDHRCGSWLHPCLAEPGEGGGGSK (Ac-AEGTGDHRCGSWLHPCLAEPGEGGGGSK; disulfide 9-16 (inferred)) [TN8.2, cyclic disulfide peptide, GI-2 with Asp at position 19 changed to Glu] |  | improved peptide stability |
